Measured values taken from PMC10899771.

T1: BabAgo (short pAgo subunit of BabSPARTA);BabTIR-APAZ (subunit of BabSPARTA) (Bacillales bacterium;Bacillales …, UniProt PDB:8QLP_2;PDB:8QLP_1 1-507;1-452, |)
T1 sequence 1: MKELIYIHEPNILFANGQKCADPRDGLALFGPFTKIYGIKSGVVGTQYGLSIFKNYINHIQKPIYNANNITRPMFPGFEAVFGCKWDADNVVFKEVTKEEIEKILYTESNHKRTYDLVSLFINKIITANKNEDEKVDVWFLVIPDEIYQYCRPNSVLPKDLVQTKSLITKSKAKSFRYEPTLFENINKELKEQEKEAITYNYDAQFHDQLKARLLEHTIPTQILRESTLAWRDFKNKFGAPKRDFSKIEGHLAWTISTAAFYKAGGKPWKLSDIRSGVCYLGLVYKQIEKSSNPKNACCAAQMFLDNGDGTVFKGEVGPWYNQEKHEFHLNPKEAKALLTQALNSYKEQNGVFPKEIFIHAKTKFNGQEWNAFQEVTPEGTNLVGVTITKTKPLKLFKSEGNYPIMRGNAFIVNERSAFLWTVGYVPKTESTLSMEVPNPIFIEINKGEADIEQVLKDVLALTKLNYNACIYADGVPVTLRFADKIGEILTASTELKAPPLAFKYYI
T1 sequence 2: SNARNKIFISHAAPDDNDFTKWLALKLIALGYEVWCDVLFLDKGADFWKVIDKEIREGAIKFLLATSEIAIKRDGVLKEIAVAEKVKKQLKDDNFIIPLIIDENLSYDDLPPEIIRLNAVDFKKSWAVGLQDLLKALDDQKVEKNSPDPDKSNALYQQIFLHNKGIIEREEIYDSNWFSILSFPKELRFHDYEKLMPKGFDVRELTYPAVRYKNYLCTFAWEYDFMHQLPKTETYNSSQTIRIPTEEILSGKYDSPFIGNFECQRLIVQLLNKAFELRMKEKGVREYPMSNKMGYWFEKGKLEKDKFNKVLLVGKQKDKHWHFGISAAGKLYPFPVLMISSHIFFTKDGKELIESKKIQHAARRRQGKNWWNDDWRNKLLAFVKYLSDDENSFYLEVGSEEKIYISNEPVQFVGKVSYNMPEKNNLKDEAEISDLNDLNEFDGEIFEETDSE


Experiments:
[1] = biological target: BabSPARTA complex (BabAgo:BabTIR-APAZ heterodimer) (Bacillales bacterium); test: cryo-EM structure
[2] = biological target: T1, BabAgo (short pAgo subunit of …); test: cryo-EM structure

Molecule | stoichiometry N [1] | binding result [2]
BabSPARTA complex (BabAgo:BabTIR-APAZ heterodimer) | 4 | –
guide RNA oBK084 / target DNA oBK382 (DNA:RNA, 5'-phosphate on guide RNA) RNA: UGACGGCUCUAAUCUAUUAGU DNA: CAACTAATAGATTAGAGCCGTCAAT | – | binds
